Experimental data reported in publication PMC5435892 (Genes & Development, 2017).

How the values were obtained:
[1] = target: T1, SUMO-Ulp2^781–873 (S. cerevisiae, UniProt P40537 781-873); test: SEC-MALS
T1 sequence (looked up): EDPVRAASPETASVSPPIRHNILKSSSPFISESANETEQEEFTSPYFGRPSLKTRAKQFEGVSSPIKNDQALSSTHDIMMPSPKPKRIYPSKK

[2] = target: the molecule itself; test: crystal structure
[3] = target: T2, His6-Csm1 (full-length) (S. cerevisiae, UniProt P25651 1-190); test: pull-down
T2 sequence (looked up): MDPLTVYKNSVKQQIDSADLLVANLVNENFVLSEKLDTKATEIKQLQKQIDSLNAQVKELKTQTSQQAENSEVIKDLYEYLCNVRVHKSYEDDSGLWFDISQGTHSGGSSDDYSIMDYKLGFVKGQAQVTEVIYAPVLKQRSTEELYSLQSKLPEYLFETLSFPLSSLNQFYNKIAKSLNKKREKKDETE

[4] = target: T3, His6-Csm1^69–190 (S. cerevisiae, UniProt P25651 69-190); test: ITC
T3 sequence (looked up): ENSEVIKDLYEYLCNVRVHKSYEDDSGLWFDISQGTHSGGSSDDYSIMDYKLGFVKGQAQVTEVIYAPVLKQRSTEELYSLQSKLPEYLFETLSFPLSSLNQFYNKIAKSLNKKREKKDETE

[5] = target: T4, Ulp2^825–844–Tof2^384–400 fusion (S. cerevisiae, UniProt P40537 825-844; Q02208 384-400); test: co-expression in E. coli and co-purification
T4 chain (looked up): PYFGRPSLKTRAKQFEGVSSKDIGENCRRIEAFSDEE

B1: Csm1^69–181 (untagged, coexpressed) (domain or fragment, S. cerevisiae, UniProt P25651 69-181, looked up)
chain: ENSEVIKDLYEYLCNVRVHKSYEDDSGLWFDISQGTHSGGSSDDYSIMDYKLGFVKGQAQVTEVIYAPVLKQRSTEELYSLQSKLPEYLFETLSFPLSSLNQFYNKIAKSLNK
[1]
  stoichiometry N: 1 Csm1 per Ulp2 (2:2)
[2]
  stoichiometry N: 2

B2: GST-Ulp2^781–873 F827A (domain or fragment, S. cerevisiae, UniProt P40537 781-873, looked up)
chain: EDPVRAASPETASVSPPIRHNILKSSSPFISESANETEQEEFTSPYAGRPSLKTRAKQFEGVSSPIKNDQALSSTHDIMMPSPKPKRIYPSKK
[3]
  binding result: binds

B3: GST-Ulp2^781–873 F839A (domain or fragment, S. cerevisiae, UniProt P40537 781-873, looked up)
chain: EDPVRAASPETASVSPPIRHNILKSSSPFISESANETEQEEFTSPYFGRPSLKTRAKQAEGVSSPIKNDQALSSTHDIMMPSPKPKRIYPSKK
[3]
  binding result: binds

B4: His6-GST-Ulp2^781–873 (domain or fragment, S. cerevisiae, UniProt P40537 781-873, looked up)
chain: EDPVRAASPETASVSPPIRHNILKSSSPFISESANETEQEEFTSPYFGRPSLKTRAKQFEGVSSPIKNDQALSSTHDIMMPSPKPKRIYPSKK
[4]
  Ka: 1.07e+06 M⁻¹
  dH: -8.613 ± 0.0517 kcal/mol
  stoichiometry N: 0.91 ± 0.004

B5: His6-GST-Ulp2^781–873 F839D (domain or fragment, S. cerevisiae, UniProt P40537 781-873, looked up)
chain: EDPVRAASPETASVSPPIRHNILKSSSPFISESANETEQEEFTSPYFGRPSLKTRAKQDEGVSSPIKNDQALSSTHDIMMPSPKPKRIYPSKK
[4]
  Ka: 55800 M⁻¹
  dH: -1.08 ± 0.0584 kcal/mol
  stoichiometry N: 0.46 ± 0.02

B6: Csm1^69–190 (untagged, coexpressed) (domain or fragment, S. cerevisiae, UniProt P25651 69-190, looked up)
chain: ENSEVIKDLYEYLCNVRVHKSYEDDSGLWFDISQGTHSGGSSDDYSIMDYKLGFVKGQAQVTEVIYAPVLKQRSTEELYSLQSKLPEYLFETLSFPLSSLNQFYNKIAKSLNKKREKKDETE
[5]
  stoichiometry N: 1 Csm1 per fusion chain (2:2)
